Laboratory results published in patent publication US20170247452A1 (MacroGenics, published 2017).

Legend:
Experiment in all cases: cell-based or functional assay
[1] = biological target: T1, cynomolgus monkey CD19 on CD20+ gated blood B cells (cynomolgus monkey, UniProt A0A2K5W8L9 20-557)
T1 sequence: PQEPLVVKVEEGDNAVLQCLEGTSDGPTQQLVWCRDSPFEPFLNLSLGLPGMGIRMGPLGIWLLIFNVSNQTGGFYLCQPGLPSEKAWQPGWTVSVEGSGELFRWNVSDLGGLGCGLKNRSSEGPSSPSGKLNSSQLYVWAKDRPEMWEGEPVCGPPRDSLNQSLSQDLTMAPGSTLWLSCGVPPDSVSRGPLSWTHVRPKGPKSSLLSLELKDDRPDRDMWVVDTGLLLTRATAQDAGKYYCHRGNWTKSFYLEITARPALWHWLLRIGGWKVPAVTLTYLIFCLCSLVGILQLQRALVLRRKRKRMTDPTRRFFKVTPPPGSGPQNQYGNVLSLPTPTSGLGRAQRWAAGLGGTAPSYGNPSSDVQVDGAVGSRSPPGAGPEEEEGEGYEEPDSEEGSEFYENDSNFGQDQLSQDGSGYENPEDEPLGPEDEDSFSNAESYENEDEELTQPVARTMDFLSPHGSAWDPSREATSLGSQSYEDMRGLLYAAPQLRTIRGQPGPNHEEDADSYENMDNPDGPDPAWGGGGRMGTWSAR

[2] = biological target: T2, human CD19 on cells (CD20+ gated blood B cells; Raji/GF, HBL-2, Jeko-1 cells; CLL B cells) (human, UniProt P15391 20-556)
T2 sequence (looked up): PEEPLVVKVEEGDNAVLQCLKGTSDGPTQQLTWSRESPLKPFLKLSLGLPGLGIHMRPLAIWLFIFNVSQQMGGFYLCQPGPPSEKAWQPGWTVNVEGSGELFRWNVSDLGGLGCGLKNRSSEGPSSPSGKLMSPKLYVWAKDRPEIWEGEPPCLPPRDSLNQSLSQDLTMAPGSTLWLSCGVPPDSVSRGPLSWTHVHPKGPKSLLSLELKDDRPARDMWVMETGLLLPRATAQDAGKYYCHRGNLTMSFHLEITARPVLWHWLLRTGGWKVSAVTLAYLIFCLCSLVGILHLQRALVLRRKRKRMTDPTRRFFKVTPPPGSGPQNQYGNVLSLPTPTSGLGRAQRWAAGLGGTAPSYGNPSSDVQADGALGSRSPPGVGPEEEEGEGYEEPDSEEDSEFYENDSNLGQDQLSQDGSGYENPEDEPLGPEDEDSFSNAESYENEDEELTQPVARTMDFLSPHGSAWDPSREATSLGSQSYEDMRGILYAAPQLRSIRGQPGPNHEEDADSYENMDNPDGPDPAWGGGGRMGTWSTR

[3] = biological target: T2, human CD19 on cells (CD20+ gated blood …); remark: listed apart in the source
[4] = biological target: T2, human CD19 on cells (CD20+ gated blood …); remark: listed apart in the source
[5] = biological target: T2, human CD19 on cells (CD20+ gated blood …); remark: listed apart in the source
[6] = biological target: T2, human CD19 on cells (CD20+ gated blood …); remark: listed apart in the source
[7] = biological target: T2, human CD19 on cells (CD20+ gated blood …); remark: listed apart in the source

B1: DART-A (CD19×CD3 bi-specific monovalent Fc diabody) (bispecific antibody)
chain 1: ENVLTQSPATLSVTPGEKATITCRASQSVSYMHWYQQKPGQAPRLLIYDASNRASGVPSRFSGSGSGTDHTLTISSLEAEDAATYYCFQGSVYPFTFGQGTKLEIKGGGSGGGGEVQLVESGGGLVQPGGSLRLSCAASGFTFSTYAMNWVRQAPGKGLEWVGRIRSKYNNYATYYADSVKGRFTISRDDSKNSLYLQMNSLKTEDTAVYYCVRHGNFGNSYVSWFAYWGQGTLVTVSSASTKGEVAACEKEVAALEKEVAALEKEVAALEKGGGDKTHTCPPCPAPEAAGGPSVFLFPPKPKDTLMISRTPEVTCVVVDVSHEDPEVKFNWYVDGVEVHNAKTKPREEQYNSTYRVVSVLTVLHQDWLNGKEYKCKVSNKALPAPIEKTISKAKGQPREPQVYTLPPSREEMTKNQVSLWCLVKGFYPSDIAVEWESNGQPENNYKTTPPVLDSDGSFFLYSKLTVDKSRWQQGNVFSCSVMHEALHNHYTQKSLSLSPGK
chain 2: QAVVTQEPSLTVSPGGTVTLTCRSSTGAVTTSNYANWVQQKPGQAPRGLIGGTNKRAPWTPARFSGSLLGGKAALTITGAQAEDEADYYCALWYSNLWVFGGGTKLTVLGGGGSGGGGQVTLRESGPALVKPTQTLTLTCTFSGFSLSTSGMGVGWIRQPPGKALEWLAHIWWDDDKRYNPALKSRLTISKDTSKNQVFLTMTNMDPVDTATYYCARMELWSYYFDYWGQGTTVTVSSASTKGKVAACKEKVAALKEKVAALKEKVAALKE
chain 3: not shown
**Q.** With B1 as the binder, how does the “EC50, autologous B cell depletion in cynomolgus monkey PBMCs, Cyno 5 (E:T = 3:1)” value [1] read?
**A.** 166 pM

**Q.** And the “EC50, autologous B cell depletion in cynomolgus monkey PBMCs, Cyno 6 (E:T = 2:1)” value [1]?
**A.** 859 pM

**Q.** What about the “EC50, autologous B cell depletion in cynomolgus monkey PBMCs, Cyno 7 (E:T = 3:1)” value [1] of the same binder?
**A.** 107 pM

**Q.** And the “EC50, autologous B cell depletion in cynomolgus monkey PBMCs, Cyno 8 (E:T = 7:1)” value [1]?
**A.** 239 pM

**Q.** What about the “mean EC50, autologous B cell depletion in cynomolgus monkey PBMCs” value [1] of the same binder?
**A.** 343 pM

**Q.** And the “EC50, autologous B cell depletion in human PBMCs, Human 5 (E:T = 8:1)” value [2]?
**A.** 6.27 pM

**Q.** What about the “EC50, autologous B cell depletion in human PBMCs, Human 6 (E:T = 8:1)” value [2] of the same binder?
**A.** 2.75 pM

**Q.** And the “EC50, autologous B cell depletion in human PBMCs, Human 7 (E:T = 5:1)” value [2]?
**A.** 5.52 pM

**Q.** What about the “EC50, autologous B cell depletion in human PBMCs, Human 8 (E:T = 9:1)” value [2] of the same binder?
**A.** 1.84 pM

**Q.** And the “mean EC50, autologous B cell depletion in human PBMCs” value [2]?
**A.** 4.2 pM

**Q.** And the “mean EC50, IFN-γ release, human T cells with Raji/GF cells (n = 2)” value [3]?
**A.** 5.51 pM

**Q.** What about the “mean EC50, IL-2 release, human T cells with Raji/GF cells (n = 2)” value [3] of the same binder?
**A.** 6.32 pM

**Q.** What about the “mean EC50, TNF-α release, human T cells with Raji/GF cells (n = 2)” value [3] of the same binder?
**A.** 3.71 pM

**Q.** What about the “mean EC50, cytotoxicity, HBL-2 (n = 5), CTL assay” value [3] of the same binder?
**A.** 0.11 pM

**Q.** What about the “mean EC50, cytotoxicity, Jeko-1 (n = 3), CTL assay” value [3] of the same binder?
**A.** 0.15 pM

**Q.** And the “mean EC50, cytotoxicity, Raji/GF (n = 5), CTL assay” value [3]?
**A.** 0.31 pM

**Q.** And the “EC50, IFN-γ production, human T cells with Raji/GF cells, donor D44284, E:T = 10:1” value [4]?
**A.** 2.44 pM

**Q.** And the “EC50, IFN-γ production, human T cells with Raji/GF cells, donor D47067, E:T = 10:1” value [4]?
**A.** 8.58 pM

**Q.** What about the “EC50, IL-2 production, human T cells with Raji/GF cells, donor D44284, E:T = 10:1” value [4] of the same binder?
**A.** 1.33 pM

**Q.** What about the “EC50, IL-2 production, human T cells with Raji/GF cells, donor D47067, E:T = 10:1” value [4] of the same binder?
**A.** 11.3 pM

**Q.** And the “EC50, TNF-α production, human T cells with Raji/GF cells, donor D44284, E:T = 10:1” value [4]?
**A.** 0.626 pM

**Q.** What about the “EC50, TNF-α production, human T cells with Raji/GF cells, donor D47067, E:T = 10:1” value [4] of the same binder?
**A.** 6.79 pM

**Q.** What about the “EC50, redirected killing of Raji/GF cells, 24 hours, E:T = 5:1” value [5] of the same binder?
**A.** 0.67 pM

**Q.** What about the “EC50, redirected killing of Raji/GF cells, 24 hours, E:T = 10:1” value [5] of the same binder?
**A.** 0.14 pM

**Q.** And the “EC50, redirected killing of Raji/GF cells, 48 hours, E:T = 2.5:1” value [5]?
**A.** 1.08 pM

**Q.** What about the “EC50, redirected killing of Raji/GF cells, 48 hours, E:T = 5:1” value [5] of the same binder?
**A.** 0.38 pM

**Q.** What about the “EC50, redirected killing of Raji/GF cells, 48 hours, E:T = 10:1” value [5] of the same binder?
**A.** 0.0441 pM

**Q.** And the “EC50, cytotoxicity against Raji/GF target cells with cynomolgus monkey PBMCs as effector cells (E:T = 30:1)” value [6]?
**A.** 0.013 pM

**Q.** What about the “average EC50 of redirected killing of HBL-2 cells, human T cells, E:T 10:1” value [6] of the same binder?
**A.** 0.105 pM

**Q.** And the “average EC50 of redirected killing of Jeko-1 cells, human T cells, E:T 10:1” value [6]?
**A.** 0.146 pM

**Q.** And the “average EC50 of redirected killing of Raji/GF cells, human T cells, E:T 10:1” value [6]?
**A.** 0.307 pM

**Q.** And the “EC50, redirected killing of Raji/GF cells, 72 hours, E:T = 1:1” value [7]?
**A.** 2.79 pM

**Q.** What about the “EC50, redirected killing of Raji/GF cells, 72 hours, E:T = 2.5:1” value [7] of the same binder?
**A.** 1.54 pM

**Q.** What about the “EC50, redirected killing of Raji/GF cells, 96 hours, E:T = 1:1” value [7] of the same binder?
**A.** 0.44 pM

**Q.** And the “EC50, redirected killing of Raji/GF cells, 96 hours, E:T = 2.5:1” value [7]?
**A.** 0.422 pM
